Laboratory results published in patent US7598352B2, “Method of identifying polypeptide monobodies which bind to target proteins and use thereof” (University of Rochester, priority 2000, dated 2009).

Columns and labels:
Assay type in all cases: cell-based
[1] = target: T1, ERα-EF (residues 297-595, the E and F domains of Estrogen Receptor α) (Homo sapiens, UniProt P03372, G400V); assay: Quantitative β-galactosidase yeast two-hybrid assay, ERα-EF bait; settings: for binding to different ERα-EF/agonist complexes: agonists E2, estriol, diethylstilbestrol, genistein, FIGS. 15A-D
T1 construct: expressed in transfected cells; host or cells: Saccharomyces cerevisiae RFY206 (mated with EGY48 for the survival screens)
T1 sequence (P03372 with tags, fused parts or gaps G400V): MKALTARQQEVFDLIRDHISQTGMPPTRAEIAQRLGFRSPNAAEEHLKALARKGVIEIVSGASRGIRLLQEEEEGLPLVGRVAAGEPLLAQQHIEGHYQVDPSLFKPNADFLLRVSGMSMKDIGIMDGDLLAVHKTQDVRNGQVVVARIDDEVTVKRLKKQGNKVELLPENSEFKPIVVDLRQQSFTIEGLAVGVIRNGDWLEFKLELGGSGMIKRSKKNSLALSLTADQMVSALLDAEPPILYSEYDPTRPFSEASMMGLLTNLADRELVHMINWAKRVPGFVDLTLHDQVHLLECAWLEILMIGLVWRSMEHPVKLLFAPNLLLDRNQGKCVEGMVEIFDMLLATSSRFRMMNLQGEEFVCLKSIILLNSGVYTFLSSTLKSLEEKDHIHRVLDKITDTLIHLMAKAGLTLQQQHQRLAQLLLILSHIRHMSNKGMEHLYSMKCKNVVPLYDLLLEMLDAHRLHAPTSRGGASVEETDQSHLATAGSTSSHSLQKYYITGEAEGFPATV
Procedure: (§1) Quantitative assays were performed as follows. The yeast strain RFY206 was (1) first transformed with pEGERα297-595 (or pEGERα297-554) and pSH18-34 and (2) subsequently with a derivative of the pYT45 plasmid encoding a particular monobody. Yeast cells were grown overnight at 30° C. in YC Glc-his-ura-trp media. The culture was then spun down, the media were discarded, and the cells were resuspended in YC Gal Raf-his-ura-trp media containing a ligand at a final cell density of 0.2 OD660 nm in a total volume of 175 μl in the wells of a deep 96-well plate. Ligands used were E2, ICI182,780, OHT, raloxifene, progesterone, estriol, diethylstilbestrol, and genistein. The ligand concentration was 1 μM except for genistein (10 μM). After incubating for six hours at 30° C. with shaking, 175 μl of β--galactosidase assay buffer (60 mM Na2HPO4, 40 mM NaH2PO4, 10 mM KCl, 1 mM MgSO4, 0.27% β-mercaptoethanol, 0.004% SDS, 4 mg/ml 2-nitrophenyl-β-D-[…], 50% Y-PER (Pierce)) was added to the culture, incubated at 30° C., then the reaction was stopped by adding 150 μl of 1M Na2CO3. After centrifugation, OD420 was measured and the β-galactosidase activity was calculated.
The binding specificity of the monobodies toward different ERα-EF/ligand complexes was examined using quantitative β-galactosidase assays. It has been shown that the β-galactosidase activity correlates well with the interaction affinity between the bait and prey of the yeast two-hybrid system (Estojak et al., 1995), allowing an in vivo discrimination of interaction affinity. To minimize the effect of different ligands on the expression level and degradation of the LexA-ER fusion protein, β-galactosidase activity was determined after a short incubation period (6 hours) following the addition of a ligand and the initiation of monobody production. It was confirmed that yeast samples prepared in the presence and absence of ligands contained similar levels of ERα-EF protein (FIG. 14H).

[2] = target: T2, ERα-E (residues 297-554, the E domain of Estrogen Receptor α) (Homo sapiens, UniProt P03372, G400V); assay: Quantitative β-galactosidase yeast two-hybrid assay, ERα-E bait (F domain deleted) compared with ERα-EF; settings: for effect of deletion of the F domain on interaction with the ERα fragments: in the presence of E2, ERα-E vs ERα-EF, FIGS. 16A-C
T2 construct: ERα-E (residues 297-554, the E domain of Estrogen Receptor α); expressed in transfected cells; host or cells: Saccharomyces cerevisiae RFY206
T2 sequence (P03372 297-554 G400V): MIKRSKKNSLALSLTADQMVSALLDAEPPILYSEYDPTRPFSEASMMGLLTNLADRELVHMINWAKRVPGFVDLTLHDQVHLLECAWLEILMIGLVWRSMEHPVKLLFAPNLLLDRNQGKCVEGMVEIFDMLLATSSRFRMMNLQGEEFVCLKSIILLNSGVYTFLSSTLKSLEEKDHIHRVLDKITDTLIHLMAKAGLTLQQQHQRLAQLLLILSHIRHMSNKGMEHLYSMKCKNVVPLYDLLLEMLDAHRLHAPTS
Procedure: as §1
The affects of the F domain (residues 551-595) on interactions of monobodies with the LBD (the E domain) of ERα was tested. The β-galactosidase activity of cells containing a LexA-ERα E domain fusion protein and a monobody-activation domain fusion protein was compared to the β-galactosidase activity of cells containing LexA-ERα-EF and the same monobody-activation domain fusion protein (FIGS. 16A-E).

[3] = target: T1, ERα-EF (residues 297-595, the E and F domains of Estrogen Receptor α); assay: Yeast two-hybrid survival assay (LEU+ growth selection) of monobody clones; settings: ligand ICI182,780, pYT45B3F7 library clones
Description: Briefly, utilizing such a system, plasmids are constructed that encode two fusion proteins, the interaction of which is shown schematically in FIGS. 4A-B. The first fusion protein (also known as “bait”) contains the DNA-binding domain (e.g., LexA) fused to a known protein, in this case a nuclear receptor or fragment thereof which includes a functional ligand binding domain (NR-LBD). Any of the above-identified nuclear receptors (or fragments thereof which include a functional ligand binding domain) can be used as the bait protein or polypeptide. The second fusion protein (also known as “prey”) includes an activation domain (e.g., B42) fused to an unknown protein, in this case a polypeptide monobody, that is encoded by a cDNA which has been recombined into a plasmid as part of a combinatorial cDNA library. Both plasmids include a promoter which is operable in yeast cells and which has been ligated upstream of the fusion protein coding regions. […] In contrast, where interaction between the monobody of the prey and the nuclear receptor ligand binding domain of the bait occurs (FIG. 4B), a functional transcription factor is reconstituted, resulting in expression of the reporter gene which can be detected by an assay for the reporter gene product. […]

B1: Clone F2-2#11: pYT45B3F7 library monobody, E2 screen; FG loop RVMDMLL (SEQ ID No: 44) (protein)
chain: MQVSDVPRDLEVVAATPTSLLISWDAPAVTVRYYRITYGETGGNSPVQEFTVPGSKSTATISGLKPGVDYTITVYAVTGRVMDMLLSKPISINYRT
modifications: left off: large carriers
- sensitivity to the differences among agonist complexes ([1]; ERα-EF/agonist complexes): most sensitive
- β-galactosidase activity among those tested ([1]; ERα-EF/agonist complexes, FIGS. 14-16): lowest
- binding to different ERα-EF/agonist complexes [1]: different reactivity

B2: Clone 23,31,E31,3,4,5: pYT45B3F7 library monobody, E2 screen; FG loop LRLMLAG (SEQ ID No: 36), wild-type BC loop (protein)
chain: MQVSDVPRDLEVVAATPTSLLISWDAPAVTVRYYRITYGETGGNSPVQEFTVPGSKSTATISGLKPGVDYTITVYAVTGLRLMLAGSKPISINYRT
modifications: left off: large carriers
- effect of deletion of the F domain on interaction with the ERα fragments [2]: little effect
- binding to different ERα-EF/agonist complexes [1]: bind equally well

B3: SRC-1: NR-box fragment (residues 570-780) of steroid receptor coactivator-1, natural coactivator of ER (protein)
chain: PSRLNIQPAKAESKDNKEIASILNEMIQSDNSSSDGKPLDSGLLHNNDRLSDGDSKYSQTSHKLVQLLTTTAEQQLRHADIDTSCKDVLSCTGTSNSASANSSGGSCPSSHSSLTERHKILHRLLQEGSPSDITTLSVEPDKKDSASTSVSVTGQVQGNSSIKLELDASKKKESKDHQLLRYLLDKDEKDLRSTPNLSLDDVKVKVEKKEQ
modifications: left off: large carriers
- effect of deletion of the F domain on interaction with the ERα fragments [2]: little effect
- binding to different ERα-EF/agonist complexes [1]: bind equally well

B4: Clone 33: pYT45B3F7 library monobody, OHT screen; FG loop TWVRPNQ (SEQ ID No: 49) (protein)
chain: MQVSDVPRDLEVVAATPTSLLISWDAPAVTVRYYRITYGETGGNSPVQEFTVPGSKSTATISGLKPGVDYTITVYAVTGTWVRPNQSKPISINYRT
modifications: left off: large carriers
- effect of deletion of the F domain on interaction with ERα ([2]; in the absence of a ligand): did not increase
- interactions with ERα-E and ERα-EF compared ([2]; in the presence of OHT, FIG. 16D): similar
- interaction with ERα-E/raloxifene complex relative to ERα-EF/raloxifene complex ([2]; raloxifene, FIG. 16D): significantly greater

B5: F2-2#10 (protein)
chain: MQVSDVPRDLEVVAATPTSLLISWDAPAVTVRYYRITYGETGGNSPVQEFTVPGSKSTATISGLKPGVDYTITVYAVTGRVRDLLMSKPISINYRT
modifications: left off: large carriers
- Binding Specificity ICI [3]: weak+
